The values that follow come from article PMC6684798, “Structural basis for the target specificity of actin histidine methyltransferase SETD3” (Nature Communications, 2019).

In test [1] the target is Recombinant human SETD3 (pXC2003), wild type (human) (UniProt Q86TU7).
Test [2] shares this target. This is another data set of the same source.
For test [3], the target named is T1, SETD3 (Homo sapiens, UniProt Q86TU7).
T1 construct: GST (cleaved yes); made in house; host or cells: Escherichia coli BL21(DE3) CodonPlus
T1 sequence (Q86TU7 1-594): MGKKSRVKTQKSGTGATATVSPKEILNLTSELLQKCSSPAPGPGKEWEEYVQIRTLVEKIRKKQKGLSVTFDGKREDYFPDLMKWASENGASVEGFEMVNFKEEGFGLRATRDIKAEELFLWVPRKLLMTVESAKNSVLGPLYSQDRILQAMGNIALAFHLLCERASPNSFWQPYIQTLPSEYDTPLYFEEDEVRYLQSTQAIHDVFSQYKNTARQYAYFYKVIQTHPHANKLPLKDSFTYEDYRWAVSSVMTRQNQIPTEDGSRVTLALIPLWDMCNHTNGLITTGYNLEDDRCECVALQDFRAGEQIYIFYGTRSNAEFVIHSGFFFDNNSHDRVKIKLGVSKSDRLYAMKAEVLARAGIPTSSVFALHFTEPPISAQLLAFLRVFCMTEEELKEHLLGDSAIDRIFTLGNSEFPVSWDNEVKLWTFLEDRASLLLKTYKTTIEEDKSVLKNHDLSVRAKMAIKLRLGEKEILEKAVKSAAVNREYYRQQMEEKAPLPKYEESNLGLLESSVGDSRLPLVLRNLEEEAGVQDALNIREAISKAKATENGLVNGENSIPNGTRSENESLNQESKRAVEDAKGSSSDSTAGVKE
Put plainly: Ki measurement of sinefungin against SAM for SETD3 (Supplementary Fig. 2a, b). It counts as biochemical. As to the method:
Recombinant human SETD3 (pXC2003) was expressed as a GST-fusion[22] in Escherichia coli BL21(DE3) CodonPlus^TM cells (Stratagene). The SETD3 mutants at residue 255 (N255A; pXC2093 and N255V; pXC2094) were generated with Q5 Site-Directed Mutagenesis Kit (New England Biolabs), confirmed by sequencing and the same protocol for expression and purification were followed. Briefly, the purification was conducted in a BIO-RAD NGC^TM system using a three-column chromatography of glutathione-sepharose, HiTrap Q-HP and Superdex 200. The GST tag was removed by PreScisson Protease (purified in-house). The purified SETD3 proteins at a concentration ~25–35 mg/ml were kept at −80 °C in storage buffer for future use [20 mM Tris (pH 8.0), 200 mM NaCl, 5% glycerol, and 0.5 mM tris (2-carboxyethyl) phosphine (TCEP)].
For Ki measurement of sinefungin (Supplementary Fig. 2a, b), a reaction mixture contained 20 mM Tris/HCl (pH 8.0), 50 mM NaCl, 0.1 mg/ml BSA, 1 mM DTT, 0.18 µM SETD3, 40 µM H73 (residues 66–80) peptide and first incubated with varied concentration of sinefungin (0–100 µM) for 30 min, reactions were then started by addition of 2–8 µM SAM. After 30 min at room temperature, the reactions were terminated by the addition of TFA to 0.1% (v/v). […]

Read-outs that look alike come from different tables or passages of the source.

Turning to “actin H73 peptide (residues 66-80) (from UniProt P60709 66-80)”, in test [1], the Km of steady-state methylation kinetics (MTase-Glo), pH 8.0, room temperature was 21 μM.
For “actin H73K peptide (residues 66-88) (from UniProt P60709 66-88)”, the Km of steady-state methylation kinetics (MTase-Glo), pH 10.5, 37 °C in test [2] is 5.2 μM.
Turning to `Nc1ncnc2c1ncn2[C@@H]1O[C@H](C[C@@H](N)CC[C@H](N)C(=O)O)[C@@H](O)[C@H]1O` [sinefungin, adenosyl ornithine], the “mode of inhibition of SETD3” value in test [3] (Lineweaver-Burk, H73(66–80) 40 µM, 0–100 µM sinefungin, 2–8 µM SAM, pH 8.0) is reported as “SAM-competitive inhibitor”. Also, the “support of methyl transfer / inhibition” value in test [3] (Supplementary Fig. 2) is “does not support the methyl transfer, and thus functions as an inhibitor”.
“actin H73K peptide (residues 66-80) (from UniProt P60709 66-80)”: in test [1], the Km of steady-state methylation kinetics (MTase-Glo), pH 10.5, 37 °C came to 430 μM.
